Measured values: publication PMC4775226, “Active and water-soluble form of lipidated Wnt protein is maintained by a serum glycoprotein afamin/α-albumin” (eLife, 2016)

T1: Tg-tagged human afamin (human, UniProt P43652 22-599)
T1 construct: human afamin with a long (36 residues) N-terminal tag peptide; cDNA was a gift from Luc Bélanger; built by the same strategy as the tagged Wnts (tag, TEV site); also called Tg-hAFM; Tg-AFM; source: Expi293F cells, transiently co-transfected with PA-tagged Wnts, in serum-free culture medium; not shown: TARGET (Tg) tag, N-terminal, kept
T1 sequence (looked up): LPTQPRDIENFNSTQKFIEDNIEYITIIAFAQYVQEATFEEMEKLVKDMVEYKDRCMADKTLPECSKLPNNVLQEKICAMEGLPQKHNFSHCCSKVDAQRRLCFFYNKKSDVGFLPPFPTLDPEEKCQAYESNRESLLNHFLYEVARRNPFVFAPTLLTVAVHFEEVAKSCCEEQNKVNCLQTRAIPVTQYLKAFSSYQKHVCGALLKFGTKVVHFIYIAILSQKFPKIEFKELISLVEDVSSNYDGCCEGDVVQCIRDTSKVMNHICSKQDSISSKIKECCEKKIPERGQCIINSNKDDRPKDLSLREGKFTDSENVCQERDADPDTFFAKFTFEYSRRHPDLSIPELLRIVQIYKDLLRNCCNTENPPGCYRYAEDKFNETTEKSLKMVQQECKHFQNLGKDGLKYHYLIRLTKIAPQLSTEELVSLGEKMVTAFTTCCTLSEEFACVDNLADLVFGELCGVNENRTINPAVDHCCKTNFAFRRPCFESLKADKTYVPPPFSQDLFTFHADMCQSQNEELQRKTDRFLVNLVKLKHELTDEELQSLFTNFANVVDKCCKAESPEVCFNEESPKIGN


Key:
[1] = target: T2, TARGET-tagged mouse Wnt3a (mouse, UniProt P27467 19-352); assay: SEC; immunoaffinity-purified Wnt preparation on Superdex 200 10/300GL in TBS, no detergent; fractions on nonreducing SDS-PAGE, Coomassie stain and immunoblots; settings: both partners purified
T2 construct: Construct design (N-terminal region from the initiation Met) is in Supplementary file 1; also called Tg-Wnt3a; tagged Wnt3a; source: purified on P20.1-Sepharose (peptide elution), SEC; not shown: TARGET (Tg) tag, N-terminal, kept

Tg-tagged human afamin = target: T1, Tg-tagged human afamin; assay: co-IP; anti-Tg antibody P20.1-Sepharose, serum-free culture media of Expi293F cells co-transfected with Tg-hAFM and PA-tagged human Wnts; immunoblot with biotinylated NZ-1; settings: partners not purified

T2 sequence (P27467 19-352): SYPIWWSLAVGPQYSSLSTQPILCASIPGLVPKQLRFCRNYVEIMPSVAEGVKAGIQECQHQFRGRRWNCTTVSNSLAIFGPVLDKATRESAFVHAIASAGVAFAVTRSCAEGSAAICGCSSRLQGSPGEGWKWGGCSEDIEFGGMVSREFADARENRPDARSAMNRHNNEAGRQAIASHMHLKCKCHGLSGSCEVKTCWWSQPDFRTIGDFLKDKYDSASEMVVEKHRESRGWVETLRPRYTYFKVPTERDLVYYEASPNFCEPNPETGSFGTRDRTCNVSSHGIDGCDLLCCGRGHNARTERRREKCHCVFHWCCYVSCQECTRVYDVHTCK

| Binder | stoichiometry N [1] | binding result (Tg-tagged human afamin) |
| --- | --- | --- |
| bovine afamin from the serum of the culture medium (natural protein, UniProt G3MYZ3 22-604, looked up, bovine afamin, serum-derived; Glycoprotein of about 70 kDa; also called AFM; α-albumin; source: endogenous, fetal calf serum in the culture medium) LPTQPQDVDDVRITQKFIDDNIGYITIIAFAQYIQEASFEEVEMLVKAMTEYRDKCLADRTLPECSKLANEVLLENICAMEGLPQKYNFSHCCHKVDFERRLCFFHNKKADIGLLPPLPTLDPEEKCQTYKNNRESFLNNYVYEVSRRNPFVFAPTLLTVAARFEEMTKTCCEEQEKANCFQTKAEPFIYYLKALSSYQKNACRALMKFGRQILQSINIAILSQKFPKIGFKQLTSLLEDVSSKYDGCCEGDVVQCIRGRSKVMSHICSKQDSISSKIKDCCEKKIPERGECIIYSNKDDRPNDLSLREAKFIESDNVCEKRDADQANFMAEFLYEYSRRHPELSTPELLRIAKVYKDLLKECCNMENPPECYRHAENRFNETTEKSLKIVQRECEHFQNLGKDDLKYHYLINLTKLAPQLSTEELTFLGKEMVMALTTCCTLSEEFACVDNLVDLVLGELCGINENRNINPAVDHCCKTNFAFRRSCFESLEADKTYVPPSTSQGLFTFHADLCQAHNEELQRKKDRFLVNLVKLKPELAGEELWSLLADFTNVVEKCCKAQEPEACFKEESPKLAAKSQAA | 1 |  |
| PA-tagged human Wnt3 (natural protein, UniProt P56703 22-355, looked up) GYPIWWSLALGQQYTSLGSQPLLCGSIPGLVPKQLRFCRNYIEIMPSVAEGVKLGIQECQHQFRGRRWNCTTIDDSLAIFGPVLDKATRESAFVHAIASAGVAFAVTRSCAEGTSTICGCDSHHKGPPGEGWKWGGCSEDADFGVLVSREFADARENRPDARSAMNKHNNEAGRTTILDHMHLKCKCHGLSGSCEVKTCWWAQPDFRAIGDFLKDKYDSASEMVVEKHRESRGWVETLRAKYSLFKPPTERDLVYYENSPNFCEPNPETGSFGTRDRTCNVTSHGIDGCDLLCCGRGHNTRTEKRKEKCHCIFHWCCYVSCQECIRIYDVHTCK |  | binds |
